# Measured values from publication PMC10034259.
# Target: cys-protein G conjugated to a peptide nucleic acid strand (PG-PNA)
substance,measurement,value
"RBD, Fc (SARS-CoV-2 spike receptor binding domain with Fc) (from UniProt P0DTC2) (Fc fusion)",stoichiometry N,2.82 RBD:PG
